# Entries after “also recorded” stand apart in the source; their conditions may differ.
# T1: HA-OGA(414-916), O60502
# T1 chain: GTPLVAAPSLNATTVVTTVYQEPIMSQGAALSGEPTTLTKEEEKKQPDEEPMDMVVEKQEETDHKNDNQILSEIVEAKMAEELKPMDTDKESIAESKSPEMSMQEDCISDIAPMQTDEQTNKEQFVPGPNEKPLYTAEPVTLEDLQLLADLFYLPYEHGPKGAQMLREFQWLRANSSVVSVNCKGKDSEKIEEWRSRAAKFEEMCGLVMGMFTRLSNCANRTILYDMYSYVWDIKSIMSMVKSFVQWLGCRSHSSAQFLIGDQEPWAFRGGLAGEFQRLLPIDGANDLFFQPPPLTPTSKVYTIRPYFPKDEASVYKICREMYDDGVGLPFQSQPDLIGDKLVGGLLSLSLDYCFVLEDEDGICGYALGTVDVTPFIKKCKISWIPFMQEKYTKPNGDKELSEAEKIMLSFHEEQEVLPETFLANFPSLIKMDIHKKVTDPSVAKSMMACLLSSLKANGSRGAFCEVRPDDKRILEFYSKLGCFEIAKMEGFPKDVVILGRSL
# T2: myc-OGA(1-400) (human, UniProt O60502 1-400)
# T2 construct: also called N2; N fragment
# T2 sequence: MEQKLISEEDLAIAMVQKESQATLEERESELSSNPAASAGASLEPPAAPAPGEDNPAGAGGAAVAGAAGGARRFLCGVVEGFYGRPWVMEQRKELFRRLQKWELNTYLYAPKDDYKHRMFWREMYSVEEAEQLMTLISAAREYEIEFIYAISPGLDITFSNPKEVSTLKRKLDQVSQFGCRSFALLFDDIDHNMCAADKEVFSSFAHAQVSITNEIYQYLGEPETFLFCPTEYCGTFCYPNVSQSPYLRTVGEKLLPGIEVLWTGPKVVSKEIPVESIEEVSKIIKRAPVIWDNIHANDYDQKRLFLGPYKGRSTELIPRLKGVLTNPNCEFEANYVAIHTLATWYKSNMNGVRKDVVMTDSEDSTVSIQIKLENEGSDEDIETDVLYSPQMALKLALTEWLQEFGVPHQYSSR
# Columns and labels:
# HA-OGA(414-916), O60502 = biological target: T1, HA-OGA(414-916), O60502
# myc-OGA(1-400) = biological target: T2, myc-OGA(1-400); experiment: co-immunoprecipitation (anti-c-Myc / anti-HA magnetic beads) from HEK 293T lysates, immunoblot
# Description: The asterisk indicates IgG heavy chain from anti-c-Myc magnetic beads. […] In FIG. 9A and FIG. 9C, activities of fragments alone or pairs with/without nGFP were evaluated on GFP-Nup62, which was enriched by beads against EPEA tag and blotted with RL2 antibody to reveal O-GlcNAc modification level. D174N is a catalytically impaired mutation on OGA. Anti-myc and anti-HA blots detect expression of full-length (fl-OGA) or N-terminal fragment, and C-terminal fragment, respectively. WCL, whole cell lysates. The data in FIGS. 9A-9C are representative of at least two biological replicates.
# For immunoprecipitation of proteins with anti-HA (Pierce, 88836) or anti-c-Myc (Pierce, 88842) magnetic beads, cell lysates with equal amounts of protein were diluted with 1×TBS-T buffer (25 mM Tris HCl pH 7.4, 150 mM NaCl, 0.05% Tween-20) and incubated with pre-washed magnetic beads at room temperature for 30 min with mixing, following the manufacturer's instructions. Anti-HA magnetic beads were washed three times with TBS-T buffer and once with ultrapure water. Anti-c-Myc magnetic beads were washed three times with 5×TBS-T buffer and once with ultrapure water. The enriched proteins were eluted with SDS sample buffer and subjected to SDS-PAGE.
# GFP-Nup62 = experiment: Deglycosylation of GFP-Nup62 co-expressed with OGA constructs (anti-EPEA enrichment, RL2 immunoblot); format: cell-based, human; conditions: for deglycosidase activity on GFP-Nup62 of N fragment: N fragment paired with C1 (aa 414-916)
# Description: HEK 293T cells were cultured in Dulbecco's Modified Eagle Medium (DMEM, Cat #11995073) supplemented with penicillin (50 μg/mL) and streptomycin (50 μg/mL) along with 10% (v/v) FBS. Transfections of all plasmids in this study were performed using TransIT-PRO® (Mirus Bio, Cat #MIR 5740) according to the manufacturer's instructions.
# Glycoproteins Nup62, Sp1, JunB, c-Jun were subcloned into pcDNA3.1 vector with a GFP and a Flag-tag or a BC2 tag in the N-terminus and an EPEA tag in the C terminus respectively, unless otherwise noted. For all split OGA constructs with or without the fusion of nanobody GFP, N fragments were tagged with myc tag and C fragments were tagged with HA tag respectively. Human SP1 cDNA ORF plasmid (Cat #HG12024-G), human c-Fos cDNA ORF plasmid, and human OGT cDNA ORF cloned with a C-terminal His tag (Cat #HG11279-M) were purchased from Sino Biological. For subcloning, PCR fragments were amplified using Q5 High-Fidelity 2× Master Mix (New England BioLabs, Cat #M0492S). The vectors were double-digested and ligated to gel-purified PCR products by T4 ligation using T4 DNA ligase (New England BioLabs, Cat #M0202S) or by Gibson assembly using Gibson Assembly Master mix (New England BioLabs, Cat #E2611L). c-Fos was subcloned into a pcDNA3.1 vector with a 14-residue Ubc tag (amino acids: QADQEAKELARQIA (SEQ ID NO: 11)), Flag tag, and EPEA tag at the C terminus. All nanobody DNA fragments were synthesized by IDT.
# After 36-48 h of transfection, cells were harvested and washed with PBS once. Cells were lysed with M-PER lysis buffer containing 1× protease inhibitor cocktail and 10 μM Thiamet-G unless otherwise noted. Protein concentrations were determined by the BCA assay kit (G-Biosciences, 786) on a multi-mode microplate reader FilterMax F3 (Molecular Devices LLC, Sunnyvale, CA).
# For immunoprecipitation of proteins with the C-terminal EPEA tag, cell lysates with equal amounts of protein were diluted with PBS and incubated with C-tag affinity matrix (Thermo Scientific) for 1 h at room temperature, with end-to-end rotation, following the manufacturer's instructions. After washing three times with PBS buffer, the enriched proteins were eluted with SDS sample buffer and subjected to SDS-PAGE.
# For immunoblotting analysis, proteins were transferred to a nitrocellulose membrane using iBlot (Thermo Scientific). Membranes were blocked with Tris buffered saline containing 0.1% Tween-20 and 5% BSA and incubated with the primary antibodies (1:1000 dilution) and the secondary antibodies (1:10,000 dilution) sequentially. Immunoblot images were captured by Azure Imager C600. Analysis of immunoblots was conducted with Fiji ImageJ. All IR fluorescence western blot images are converted into grayscale images by Fiji ImageJ. The unsaturated exposure of immunoblot images was used for quantification with the appropriate loading controls as standards. Statistical analysis of the data was performed with Prism 8, using data from at least three independent experiments.
molecule,measurement,setting,value
myc-OGA(1-413) (protein) MVQKESQATLEERESELSSNPAASAGASLEPPAAPAPGEDNPAGAGGAAVAGAAGGARRFLCGVVEGFYGRPWVMEQRKELFRRLQKWELNTYLYAPKDDYKHRMFWREMYSVEEAEQLMTLISAAREYEIEFIYAISPGLDITFSNPKEVSTLKRKLDQVSQFGCRSFALLFDDIDHNMCAADKEVFSSFAHAQVSITNEIYQYLGEPETFLFCPTEYCGTFCYPNVSQSPYLRTVGEKLLPGIEVLWTGPKVVSKEIPVESIEEVSKIIKRAPVIWDNIHANDYDQKRLFLGPYKGRSTELIPRLKGVLTNPNCEFEANYVAIHTLATWYKSNMNGVRKDVVMTDSEDSTVSIQIKLENEGSDEDIETDVLYSPQMALKLALTEWLQEFGVPHQYSSRQVAHSGAKASVVD,deglycosidase activity on GFP-Nup62 (O-GlcNAc RL2 immunoblot),"HA-OGA(414-916), O60502",The N- and C-terminal fragments can associate to reconstitute OGA enzymatic activity when co-expressed simultaneously in living cells
"HA-OGA(554-706) (enzyme, human, UniProt O60502 554-706, looked up, range 554-706; the legend prints C4; also called C4; not shown: N-terminal HA tag) TLEDLQLLADLFYLPYEHGPKGAQMLREFQWLRANSSVVSVNCKGKDSEKIEEWRSRAAKFEEMCGLVMGMFTRLSNCANRTILYDMYSYVWDIKSIMSMVKSFVQWLGCRSHSSAQFLIGDQEPWAFRGGLAGEFQRLLPIDGANDLFFQPP",binding result,myc-OGA(1-400),no binding
"OGA(cat): catalytic domain of OGA alone, residues 1-366, myc tag (protein, UniProt O60502 1-366, looked up, fragment, catalytic domain myc tag, catalytic domain of OGA alone, residues 1-366, myc tag) MVQKESQATLEERESELSSNPAASAGASLEPPAAPAPGEDNPAGAGGAAVAGAAGGARRFLCGVVEGFYGRPWVMEQRKELFRRLQKWELNTYLYAPKDDYKHRMFWREMYSVEEAEQLMTLISAAREYEIEFIYAISPGLDITFSNPKEVSTLKRKLDQVSQFGCRSFALLFDDIDHNMCAADKEVFSSFAHAQVSITNEIYQYLGEPETFLFCPTEYCGTFCYPNVSQSPYLRTVGEKLLPGIEVLWTGPKVVSKEIPVESIEEVSKIIKRAPVIWDNIHANDYDQKRLFLGPYKGRSTELIPRLKGVLTNPNCEFEANYVAIHTLATWYKSNMNGVRKDVVMTDSEDSTVSIQIKLENEGSDE",deglycosidase activity on GFP-Nup62 of N fragment,GFP-Nup62; HEK 293T cells,no activity was seen on GFP-Nup62
same,deglycosidase activity / O-GlcNAc modification level on GFP-Nup62,GFP-Nup62; co-expressed in HEK 293T cells,inactive
same,deglycosidase activity on GFP-Nup62 after fusion of nGFP,"GFP-Nup62; nGFP fused to a fragment, HEK 293T cells, listed as N3",could not be recovered; also recorded: unable to reconstitute OGA's activity with any C-fragments shown in this study even in the presence of nGFP
"N2: myc-OGA(1-400) N fragment (SEQ ID NO: 4) (protein, myc tag) MEQKLISEEDLAIAMVQKESQATLEERESELSSNPAASAGASLEPPAAPAPGEDNPAGAGGAAVAGAAGGARRFLCGVVEGFYGRPWVMEQRKELFRRLQKWELNTYLYAPKDDYKHRMFWREMYSVEEAEQLMTLISAAREYEIEFIYAISPGLDITFSNPKEVSTLKRKLDQVSQFGCRSFALLFDDIDHNMCAADKEVFSSFAHAQVSITNEIYQYLGEPETFLFCPTEYCGTFCYPNVSQSPYLRTVGEKLLPGIEVLWTGPKVVSKEIPVESIEEVSKIIKRAPVIWDNIHANDYDQKRLFLGPYKGRSTELIPRLKGVLTNPNCEFEANYVAIHTLATWYKSNMNGVRKDVVMTDSEDSTVSIQIKLENEGSDEDIETDVLYSPQMALKLALTEWLQEFGVPHQYSSR",deglycosidase activity on GFP-Nup62 of N fragment,GFP-Nup62; HEK 293T cells,possessed deglycosylation capability when paired with C1

# From patent US20240043528A1, “NANOBODY-OGA FUSIONS AND USES THEREOF” (President and Fellows of Harvard College, priority 2020, published 2024)
